How the values were obtained:
[1] = system: Botrytis cinerea conidia; test: In vitro liquid-based assay (fungal biomass, 96-well plates, Cytation 5); assay type: cell-based; settings: co-incubated with conidia for three days, vs untreated control
Procedure, shortened: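 Conidia (5000/mL stock) were co-incubated with dsRNA or control treatments in pH 6.0 minimal medium. Incubation ran 72 h at 23 °C, shaking at 120 rpm under continuous light. Fungal biomass was measured by brightfield imaging (8 slices per well, 2.5× lens) and expressed as average reduction versus control.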

[2] = system: Botrytis cinerea isolate (B05.10); test: Detached leaf assay (tomato leaflets, lesion size); assay type: in vivo; settings: five days post inoculation, vs untreated inoculated control
Procedure, shortened: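 Tomato (Brandywine) detached lateral leaflets were sprayed with treatment in 0.03% Silwet L-77 24 h before inoculation. Two 10 μL drops of 1×10^5 conidia/mL in 7% grape juice were applied per leaflet, which was then incubated at 23 °C, ~75% RH, 12/12 light. Lesion diameter was measured at 5 DPI against the untreated inoculated control, ten replicates.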

[3] = system: Botrytis cinerea B05.10 isolate; test: Greenhouse whole plant assay (tomato 'Lanai', disease severity); assay type: in vivo; settings: final rating day (rating #3)
Protocol: Plant Tissue: Tomato seedlings, variety “Lanai”, were seeded then thinned to one plant per pot in an 18 cell tray. […] Plants were grown at a 23° C./17° C. day/night temperature with 10 hours of light each 24-hour period. The RH was ambient and plants were fertilized two times a day every day except for Sunday when they received only water. Plants were grown using Fafard brand medium (70-80% sphagnum peat moss, perlite, vermiculite, dolomite limestone and watering agent) for the entire experiment.
Fungal culture. A Botrytis cinerea B05.10 isolate was maintained, and spores were harvested as previously described for detached leaf assays, except a grape juice additive was not used for inoculum preparation.
Treatment of plants. Whole tomato plants were treated ˜24 hours before inoculation using the spray booth. A 0.07% Silwet L-77 solution was used as a spreader and added for a 0.07% final volume in water (Silwet L-77 brand Phyto Technology Laboratories, S7777 Lot #14D7777001 F). The spray booth deck was set to 20″ above the plant canopy and a twinjet 8002EVS nozzle with 100 mesh filter placed into the spray mechanism. The spray boom was calibrated before treatment application with specs as follows: 50 GPA rate, 1.25 MPH speed, 6′ spray length, single pass, and at 45 psi to get a catch of 133 mL in 10 seconds (+/−6 mL). Each treatment was replicated ten times for each experimental run.
Inoculation. Plants were inoculated using a mist-o-matic applicator, which is pressurized by manual pumping. The inoculum suspension was poured into the mist-o-matic immediately before inoculation in the GH space. The containers were only filled half-way and inoculum was applied evenly to the surface of all foliage with even coverage.
Incubation. Plants were incubated inside of a 40″ tall humidity chamber supported by PVC pipe and covered in 3M translucent plastic. A humidifier was inside the chamber and set to low and continuous humidity (filled with tap water). The temperature was D:24-20° C./N:20-18° C. with 15 hours of light, of which 9 hours was with supplemental lighting. RH was ambient and watering occurred everyday by sub-irrigation with the bench being flooded for 10 minutes before draining.
Rating. Tomato plants were rated three times during the two-week experiment with rating starting four days post-inoculation and occurring every three to four days after the initial rating date. Plants were rated for the number of lesions and disease severity, which is the percentage of the plant that was symptomatic including necrotic lesions, pathogen sporulation, and chlorosis.
Data analysis. […] Percent disease severity (%DS) was determined by the percent area of the tomato foliage with symptoms including lesions, chlorosis, necrosis, and wilting. Disease severity was rated at three dates (Rating #) over the 12-day test period. Treatments were compared to the untreated, inoculated control and a chemical standard. Statistical analysis was done using SAS JMP version 13.2.1 with treatments compared to the untreated, inoculated control and a chemical standard using Tukey-Kramer and student's T tests.

[4] = 8 g ai/ha, two runs, three-week-old 'Lanai' tomato plant
[5] = 25 g ai/ha, two runs, three-week-old 'Lanai' tomato plant

| Molecule | Average % Reduction in Biomass ([1]; 25 ppm dsRNA) [%] | Average % Reduction in Biomass ([1]; 150 ppm dsRNA) [%] | Average % Reduction in Lesion Size ([2]; 30 ppm) [%] | Average % Reduction in Lesion Size ([2]; 50 ppm) [%] | % control ([3]; 25 g ai/ha, three runs, four-week-old 'Lanai' tomato plant) [%] | % control [3, 4] [%] | % control [3, 5] [%] |
| --- | --- | --- | --- | --- | --- | --- | --- |
| GS793: dsRNA trigger targeting B. cinerea Bcswd2 (XM_024694665.1); trigger SEQ ID NO 20, RNA 32, reverse complement 44 (nucleic acid, listed as Botrytis cinerea) sense: CUGCGUCACUAUAUGGUCCUAGACUUUUCAACUCCCUCUUUGAAGCUUACACAACAUCUUGGAAAAGUAUAAAAACAACAACAAGAAACAUGUCGUCAACCCCUAUGGCGAUAGACUCUCCAUUAGGUGCGAAUGGUACUUCCAUGUUGAAAGCAAACGGAGUCUCAUCAGUCCCACAGACUGGCAAACUGACUGAGAUGAUCUCAUUAUACCAUCCAGUCAAGCUUUUCAAACAUCCUCCGACACCUGCAGACAAAGGGCAAACUCCUCCGAGUUACAACUUUAUUCAGUCUAUCAAUUUCAAUGACAAUGGCAGUCAGCUUAUCACGUCAGAAACUGAUAACACUAUGCAAAUAUAUGAUGUUCUCGAAGGAAGACAUUCAAAAAUGAAUAUUAGUGCCAAGUAUGGUUGUAACCAUGCAAUGUUUGGCCAUGCUGAACAUUGUAUAAUCCAUUCUAGUACCAAAAAAGACCACAA antisense: UUGUGGUCUUUUUUGGUACUAGAAUGGAUUAUACAAUGUUCAGCAUGGCCAAACAUUGCAUGGUUACAACCAUACUUGGCACUAAUAUUCAUUUUUGAAUGUCUUCCUUCGAGAACAUCAUAUAUUUGCAUAGUGUUAUCAGUUUCUGACGUGAUAAGCUGACUGCCAUUGUCAUUGAAAUUGAUAGACUGAAUAAAGUUGUAACUCGGAGGAGUUUGCCCUUUGUCUGCAGGUGUCGGAGGAUGUUUGAAAAGCUUGACUGGAUGGUAUAAUGAGAUCAUCUCAGUCAGUUUGCCAGUCUGUGGGACUGAUGAGACUCCGUUUGCUUUCAACAUGGAAGUACCAUUCGCACCUAAUGGAGAGUCUAUCGCCAUAGGGGUUGACGACAUGUUUCUUGUUGUUGUUUUUAUACUUUUCCAAGAUGUUGUGUAAGCUUCAAAGAGGGAGUUGAAAAGUCUAGGACCAUAUAGUGACGCAG | 13 | 36 | 55.26 | 57.69 | 24 |  |  |
| GS728: dsRNA trigger targeting B. cinerea XM_024691746.1; trigger SEQ ID NO 18, RNA 30, reverse complement 42 (nucleic acid, listed as Botrytis cinerea) sense: CACAAGAAGCAUGGGGUAUGAAGAGAUAAGUUGUGGCUGGUGAACAACUAAAUCGACAUUUUCCGUCCCCACAGCACCUUUCGAACACUGAAUUCAAUUAAUUAUACACUGUUCCAGUAUCCACUUCCACUUCCACUCCCACAAAACAUACAAUACUACGAUAAUACGAUUUUACGAUAACGUCCAGCCUUGAGGACAACAAGUCAGAUGAAAAUCACGAGAUGGCAUUGUUUUUGAUGUUAGUAAAUGCUAUACCGACGGUAAUCGGCACUGCUGAAGCAUUAGAUGUUCAGAAGAAGGAAGAUUUGGCCCAGAAGCACAAGGCAAAGUUUUUCAUGACGGCGAAUUUUGCUUUGGAUGGAAAGGUUGCUCAUGAAAAAGAAUCACAGGUCGUCCUACGCGAUAACAGGAUGUACUUAAACCACCCAGAUGCGCCGAAAGAAGGACAUCGAUUUUGUGGUUACUAUUUCAUGUAUC antisense: GAUACAUGAAAUAGUAACCACAAAAUCGAUGUCCUUCUUUCGGCGCAUCUGGGUGGUUUAAGUACAUCCUGUUAUCGCGUAGGACGACCUGUGAUUCUUUUUCAUGAGCAACCUUUCCAUCCAAAGCAAAAUUCGCCGUCAUGAAAAACUUUGCCUUGUGCUUCUGGGCCAAAUCUUCCUUCUUCUGAACAUCUAAUGCUUCAGCAGUGCCGAUUACCGUCGGUAUAGCAUUUACUAACAUCAAAAACAAUGCCAUCUCGUGAUUUUCAUCUGACUUGUUGUCCUCAAGGCUGGACGUUAUCGUAAAAUCGUAUUAUCGUAGUAUUGUAUGUUUUGUGGGAGUGGAAGUGGAAGUGGAUACUGGAACAGUGUAUAAUUAAUUGAAUUCAGUGUUCGAAAGGUGCUGUGGGGACGGAAAAUGUCGAUUUAGUUGUUCACCAGCCACAACUUAUCUCUUCAUACCCCAUGCUUCUUGUG | 20 | 35 | 20.16 | 16.48 |  | 27 | 37 |
| GS686: dsRNA trigger targeting B. cinerea Bcrrp1 (XM_001550365.2); trigger SEQ ID NO 17, RNA 29, reverse complement 41 (nucleic acid, listed as Botrytis cinerea) sense: CCCCUCCACCCAAGCACCUUUCUACACCGGAUUCUGGGAAAUCAUGUCCAAAGAAUGGGAACGCAUUGAUGUGCUGCGCAUGGAGAAAUUCCUGCUGCUAGUGAGACGCUAUUUGGCAGCUGGUUUUGAGGUUGUGGUAUCCAGCUCUUCCGCACCUGCGGGAAAGAAAAACAAGACGAAAGCUUCGAAGAAAGUGAUUUCGGAAUCCGGAGAGCAGGUAUUAGAAGUCCUAUCUUCCAUUCCCUGUGGUUCGGGCCCCGAUGCGCAACGCACACCGAAUGGAAUGCGCUUCCACGUAAUCGAUAUCUGGAUCGACGAGCUUGAGAAACUGGGUGUGAUCGACGCAGCGAAGGAGAGUGAAGAGGGCGCUGAGAAAUUAGAGAAAUUACUGGAGCCGUUGAGGAAAUUGGGAAAGGAGAGCAUUAAUAAGACGGUCAGGAAUAAGUGUAAGGAGGC antisense: GCCUCCUUACACUUAUUCCUGACCGUCUUAUUAAUGCUCUCCUUUCCCAAUUUCCUCAACGGCUCCAGUAAUUUCUCUAAUUUCUCAGCGCCCUCUUCACUCUCCUUCGCUGCGUCGAUCACACCCAGUUUCUCAAGCUCGUCGAUCCAGAUAUCGAUUACGUGGAAGCGCAUUCCAUUCGGUGUGCGUUGCGCAUCGGGGCCCGAACCACAGGGAAUGGAAGAUAGGACUUCUAAUACCUGCUCUCCGGAUUCCGAAAUCACUUUCUUCGAAGCUUUCGUCUUGUUUUUCUUUCCCGCAGGUGCGGAAGAGCUGGAUACCACAACCUCAAAACCAGCUGCCAAAUAGCGUCUCACUAGCAGCAGGAAUUUCUCCAUGCGCAGCACAUCAAUGCGUUCCCAUUCUUUGGACAUGAUUUCCCAGAAUCCGGUGUAGAAAGGUGCUUGGGUGGAGGGG | 16 | 37 | 39.61 | 33.29 |  | 31 | 14 |
